Measurements: patent publication US20040054131A1
Where no end group is shown, it is not given here.

Target: FGFR1c extracellular domain-IgG fusion protein (human) (UniProt P11362)
Test: BIAcore real-time kinetic analysis, immobilized FGFR1c ECD, no heparin; approximate apparent affinity

Sequence of FGFR1c extracellular domain-IgG fusion protein (human) (P11362 22-377): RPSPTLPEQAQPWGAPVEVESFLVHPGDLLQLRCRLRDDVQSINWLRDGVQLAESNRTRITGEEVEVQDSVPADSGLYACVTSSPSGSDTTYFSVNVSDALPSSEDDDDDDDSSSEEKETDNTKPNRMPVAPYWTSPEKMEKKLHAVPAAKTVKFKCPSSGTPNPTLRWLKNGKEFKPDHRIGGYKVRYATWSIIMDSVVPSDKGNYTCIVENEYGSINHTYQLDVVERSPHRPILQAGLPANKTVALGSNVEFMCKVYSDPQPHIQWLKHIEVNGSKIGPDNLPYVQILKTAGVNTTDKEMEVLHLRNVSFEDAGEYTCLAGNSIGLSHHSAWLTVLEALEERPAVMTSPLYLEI

Kd: 90 nM
Binder: AESGDDYCVLVFTDSAWTKICDWSHFRN (Fc fusion, part only; not given: linkers and human IgG1 Fc, not shown: a dimerising Fc or GST, cysteine pairing not given here; also: homodimer, fused to Fc of human IgG1) [C19-Ig fusion protein]
